Assay results: patent publication US20140087995A1 (published 2014)
Numbered stars: 1 amine (or outer) side, 2 acyl side, 3 side chain; on linkers, the order of the positions; unused ones are H or OH. Bridge positions count the residues as written; N and C are the ends. * marks the point of attachment. C20 diacid = O=C(O)CCCCCCCCCCCCCCCCCCC(=O)*; γGlu = O=C(O)[C@H](CCC(=O)[*:2])N[*:1]

T1: human amylin receptor (amylin 3(a) receptor: human calcitonin receptor plus RAMP-3) (human, UniProt P30988 25-474; O60896 24-148, limits assumed)
T1 construct: whole, on cells; the functional assay (Assay IIa) used the whole cells; also called hAmylin-R; hAmylinR
T1 sequence (looked up) 1: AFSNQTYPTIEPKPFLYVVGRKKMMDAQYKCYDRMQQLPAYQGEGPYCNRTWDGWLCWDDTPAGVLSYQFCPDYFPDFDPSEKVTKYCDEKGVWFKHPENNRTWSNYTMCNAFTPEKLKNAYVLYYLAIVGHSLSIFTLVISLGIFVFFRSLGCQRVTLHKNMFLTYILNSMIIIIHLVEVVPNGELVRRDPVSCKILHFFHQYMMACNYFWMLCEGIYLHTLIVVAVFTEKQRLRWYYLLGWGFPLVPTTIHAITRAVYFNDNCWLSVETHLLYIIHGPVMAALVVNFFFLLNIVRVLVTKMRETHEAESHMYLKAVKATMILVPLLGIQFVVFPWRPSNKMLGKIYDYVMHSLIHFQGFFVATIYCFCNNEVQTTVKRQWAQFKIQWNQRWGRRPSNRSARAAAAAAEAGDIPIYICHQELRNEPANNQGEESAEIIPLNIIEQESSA
T1 sequence (looked up) 2: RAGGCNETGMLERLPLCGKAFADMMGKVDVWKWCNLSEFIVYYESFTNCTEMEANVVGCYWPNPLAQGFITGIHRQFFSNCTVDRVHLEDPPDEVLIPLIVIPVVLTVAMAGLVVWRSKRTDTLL

T2: human calcitonin receptor (human, UniProt P30988 25-474)
T2 sequence (looked up): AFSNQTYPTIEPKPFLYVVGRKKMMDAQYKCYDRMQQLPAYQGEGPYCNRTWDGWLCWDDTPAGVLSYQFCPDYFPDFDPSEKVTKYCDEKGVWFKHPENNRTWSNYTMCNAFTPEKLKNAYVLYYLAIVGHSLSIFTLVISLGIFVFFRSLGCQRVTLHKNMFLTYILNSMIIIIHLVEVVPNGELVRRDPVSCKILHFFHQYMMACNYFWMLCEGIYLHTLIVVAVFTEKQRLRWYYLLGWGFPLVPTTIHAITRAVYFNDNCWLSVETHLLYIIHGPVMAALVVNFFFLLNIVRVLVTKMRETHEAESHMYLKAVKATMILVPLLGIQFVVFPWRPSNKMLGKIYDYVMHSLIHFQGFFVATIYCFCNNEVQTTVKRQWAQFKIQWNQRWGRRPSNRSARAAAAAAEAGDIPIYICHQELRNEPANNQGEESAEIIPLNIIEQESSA


What was measured:
[1] = target: T1, human amylin receptor (amylin 3(a) …); test: SPA competition binding, membranes of Amylin 3(a)/CRE-luc BHK cells, displacement of 125I-rat amylin (Assay V)
Experimental: The binding assay was performed using scintillation proximity assay (SPA) beads (RPNQ0001) from PerkinElmer and cell membranes from the Amylin 3(a)/CRE-luc cells (as described in Assay (II)) were used. Membranes were prepared in the following way; the cells were rinsed with PBS and incubated with Versene for approximately 5 min before harvesting. The cells were flushed with PBS and the cell-suspension was centrifuged for 5 min at 1000 rpm. Cells were homogenized (ultrathurrax) in a buffer containing 20 mM Na-HEPES and 10 mM EDTA (pH 7.4) and centrifuged at 20.000 rpm for 15 min. The resulting pellet was resuspended, homogenized and centrifuged (20.000 rpm, 15 min) in a buffer containing 20 mM Na-HEPES and 0.1 mM EDTA (pH 7.4, buffer 2). The resulting pellet was resuspended in buffer 2 and protein concentration was measured (BCA protein Assay, Pierce). The homogenate was kept cold during the whole procedure. The membranes were kept at −80° C. until use. The assay was performed in a 384 well Optiplate (PerkinElmer) in a total volume of 40 ul. Membranes were mixed with SPA beads. Final concentration of membranes 35 ng/μL final and SPA beads was 0.05 mg/well. Test-compounds were dissolved in DMSO and further diluted in assay buffer (50 mM Hepes, pH 7.4, 1 mM CaCl2, 5 mM MgCl₂, 0.1% OA and 0.02% Tween20). […] The final mixture was incubated with shaking at 400 rpm for 120 min at 25° C. prior to centrifugation (1500 rpm, 10 min). Samples were analyzed on TopCounter™ (Packard). The IC₅₀ was calculated using (one site binding competition analysis) GraphPad Prism5 as a measure of receptor affinity.

[2] = target: T2, human calcitonin receptor; test: cell-based or functional assay
[3] = target: T1, human amylin receptor (amylin 3(a) …); test: cell-based or functional assay

| IC50 [1] | Ratio hCT/hAmylin funct. (hCTR EC50 against hAmylin-R EC50) [2] | hCTR funct. EC50 [2] | hAmylin-R funct. EC50 [3] | Binder |
| --- | --- | --- | --- | --- |
| 0.97 nM | 4 | 0.372 nM | 0.092 nM | {C20 diacid-γGlu}-KCNTATCATQRLAEFLRHSSPNFGAIPSPTNVGSNTY-NH2 (disulfide 2-7; SMILES CC[C@H](C)[C@H](NC(=O)[C@H](C)NC(=O)CNC(=O)[C@H](Cc1ccccc1)NC(=O)[C@H](CC(N)=O)NC(=O)[C@@H]1CCCN1C(=O)[C@H](CO)NC(=O)[C@H](CO)NC(=O)[C@H](Cc1c[nH]cn1)NC(=O)[C@H](CCCNC(=N)N)NC(=O)[C@H](CC(C)C)NC(=O)[C@H](Cc1ccccc1)NC(=O)[C@H](CCC(=O)O)NC(=O)[C@H](C)NC(=O)[C@H](CC(C)C)NC(=O)[C@H](CCCNC(=N)N)NC(=O)[C@H](CCC(N)=O)NC(=O)[C@@H](NC(=O)[C@H](C)NC(=O)[C@@H]1CSSC[C@H](NC(=O)[C@H](CCCCN)NC(=O)CC[C@H](NC(=O)CCCCCCCCCCCCCCCCCCC(=O)O)C(=O)O)C(=O)N[C@@H](CC(N)=O)C(=O)N[C@@H]([C@@H](C)O)C(=O)N[C@@H](C)C(=O)N[C@@H]([C@@H](C)O)C(=O)N1)[C@@H](C)O)C(=O)N1CCC[C@H]1C(=O)N[C@@H](CO)C(=O)N1CCC[C@H]1C(=O)N[C@H](C(=O)N[C@@H](CC(N)=O)C(=O)N[C@H](C(=O)NCC(=O)N[C@@H](CO)C(=O)N[C@@H](CC(N)=O)C(=O)N[C@H](C(=O)N[C@@H](Cc1ccc(O)cc1)C(N)=O)[C@@H](C)O)C(C)C)[C@@H](C)O, also called compound 37) |
| 0.1 nM | 6.6 | 0.327 nM | 0.05 nM | {C20 diacid-γGlu}-KCNTATCATQRLAEFLRHSSPNFGAIPSSTNVGPNTY-NH2 (disulfide 2-7; SMILES CC[C@H](C)[C@H](NC(=O)[C@H](C)NC(=O)CNC(=O)[C@H](Cc1ccccc1)NC(=O)[C@H](CC(N)=O)NC(=O)[C@@H]1CCCN1C(=O)[C@H](CO)NC(=O)[C@H](CO)NC(=O)[C@H](Cc1c[nH]cn1)NC(=O)[C@H](CCCNC(=N)N)NC(=O)[C@H](CC(C)C)NC(=O)[C@H](Cc1ccccc1)NC(=O)[C@H](CCC(=O)O)NC(=O)[C@H](C)NC(=O)[C@H](CC(C)C)NC(=O)[C@H](CCCNC(=N)N)NC(=O)[C@H](CCC(N)=O)NC(=O)[C@@H](NC(=O)[C@H](C)NC(=O)[C@@H]1CSSC[C@H](NC(=O)[C@H](CCCCN)NC(=O)CC[C@H](NC(=O)CCCCCCCCCCCCCCCCCCC(=O)O)C(=O)O)C(=O)N[C@@H](CC(N)=O)C(=O)N[C@@H]([C@@H](C)O)C(=O)N[C@@H](C)C(=O)N[C@@H]([C@@H](C)O)C(=O)N1)[C@@H](C)O)C(=O)N1CCC[C@H]1C(=O)N[C@@H](CO)C(=O)N[C@@H](CO)C(=O)N[C@H](C(=O)N[C@@H](CC(N)=O)C(=O)N[C@H](C(=O)NCC(=O)N1CCC[C@H]1C(=O)N[C@@H](CC(N)=O)C(=O)N[C@H](C(=O)N[C@@H](Cc1ccc(O)cc1)C(N)=O)[C@@H](C)O)C(C)C)[C@@H](C)O, also called compound 32) |
